The source of these data is patent publication US20030017489.

The target of the data set is recombinant Histone H3.

B1: hCARM-1 (SEQ ID NO:9) (protein)
chain: MAAAAAAVGPGAGGAGSAVPGGAGPCATVSVFPGARLLTIGDANGEIQRHAEQQALRLEVRAGPDSAGIALYSHEDVCVFKCSVSRETECSRVGKQSFIITLGCNSVLIQFATPNDFCSFYNILKTCRGHTLERSVFSERTEESSAVQYFQFYGYLSQQQNMMQDYVRTGTYQRAILQNHTDFKDKIVLDVGCGSGILSFFAAQAGARKIYAVEASTMAQHAEVLVKSNNLTDRIVVIPGKVEEVSLPEQVDIIISEPMGYMLFNERMLESYLHAKKYLKPSGNMFPTIGDVHLAPFTDEQLYMEQFTKANFWYQPSFHGVDLSALRGAAVDEYFRQPVVDTFDIRILMAKSVKYTVNFLEAKEGDLHRIEIPFKFHMLHSGLVHGLAFWFDVAFIGSIMTVWLSTAPTEPLTHWYQVRCLFQSPLFAKAGDTLSGTCLLIANKRQSYDISIVAQVDQTGSKSSNLLDLKNPFFRYTGTTPSPPPGSHYTSPSENMWNTGSTYNLSSGMAVAGMPTAYDLSSVIASGSSVGHNNLIPLANTGIVNHTHSRMGSIMSTGIVQGSSGAQGSGGGSTSAHYAVNSQFTMGGPAISMASPMSIPTNTMHYGS
For B1, the “methylation of Histone H3 (in vitro methylation reaction, SDS-PAGE, exposed to film)” value is reported as “Our experiments showed that hCARM-1 methylates Histone H3 efficiently”.
